The test addresses XptA2wi (Xenorhabdus nematophilus str Xwi).

Turning to XptB1xb + XptC1xb, the dead corn earworm larvae of 8 (pDAB6026 lysate + purified XptA2wi) (dead insects (of 8)) worked out at 8.

Values taken from US8084418B2.
